Reference: the DeepSol protein solubility set

Test: soluble on expression in E. coli; label from the status in PepcDB or PDB records

Row | Sequence | soluble on expression in E. coli
1 | GPGSMKGCCRLLSAAEAASLIRRIGPFAVHRGEATGVIEILSGDPNHPVKKLNLLGLAYAAALTELSELLSEELNAEARVAIFAARDGCSFSAGIDLKELSGMRPPSGSGAAATAAASSGPKAPAMLLQHQHRVVRTFQDGISSLARCRIPIIAAIDGHCIGGATSVASSCDVRYTTTRATFSVKEAAVGLAADIGVLQRLPAIIGEGRTRELAFTCRDFSGVEAKAMGFVEEVCADYPALLAHARKRAAQIAANSPLGVQNTKLILNWERERAAQTSLEYQAAINAFSLHCSDIPEAARAFAERREPVFTDYMVNPRGGPPHSRQS | not soluble
2 | MAAVPELLEQQEEDRSKLRSVSVDLNVDPSLQIDIPDALSERDKVKFTVHTKTTLSTFQSPEFSVTRQHEDFVWLHDTLTETTDYAGLIIPPAPTKPDFDGPREKMQKLGEGEGSMTKEEFAKMKQELEAEYLAVFKKTVSTHEVFLQRLSSHPVLSKDRNFHVFLEYDQDLSVRRKNTKEMFGGFFKSVVKSADEVLFSGVKEVDDFFEQEKNFLINYYNRIKDSCAKADKMTRSHKNVADDYIHTAACLHSLALEEPTVIKKYLLKVAELFEKLRKVEGRVSSDEDLKLTELLRYYMLNIEAAKDLLYRRTKALIDYENSNKALDKARLKSKDVKLAETHQQECCQKFEQLSESAKEELINFKRKRVAAFRKNLIEMSELEIKHARNNVSLLQSCIDLFKNN | soluble
3 | MGSDKIHHHHHHVITLWGRLNSHNVKKVAWALIEMDLPHQRRDIGGQFGYTTDYLAKNPNRMVPMIEEGELALWESNAILRYLADRHAPAFRSDDPVVRAQGDKWMDWQFHFADAQRDAFLGCVRHGKDASDPAVATSATAAAGMMAILDEELARRPWLSGDRFGIADIPMGVYAHTYHSLPIERPDLPHLADWYARLRTRPGYASQVMIPLI | not soluble
4 | GMKTLCTHSLPKEKMPYLLRSGEGERYLFGRQVATVMANGRSTGDLFEIVLLSGGKGDAFPLHVHKDTHEGILVLDGKLELTLDGERYLLISGDYANIPAGTPHSYRMQSHRTRLVSYTMKGNVAHLYSVIGNPYDHAEHPPYASEEVSNERFAEAAAVADIVFLDEAKPACSAKLAELTELPDGAVPYVLESGEGDRLLTGDQLHRIVAAQKNTDGQFIVVSSEGPKGDRIVDHYHEYHTETFYCLEGQMTMWTDGQEIQLNPGDFLHVPANTVHSYRLDSHYTKMVGVLVPGLFEPFFRTLGDPYEGHIFPCEPQALRFDRILQNIEALDLKVMKP | soluble
5 | MAHHHHHHMFRGRIELIIGPMFAGKTTELMRRVKREIHARRSCFVIKYSKDTRYDEHNVASHDQLMLRAQAAVSQLTEVRDTWKRFDVLAIDEGQFFSDLVDFCNTAADAGKVVMVSALDGDYRRKPFGQICELVPYCEAVDKLTAVCMMCHEQPACFTRRTVNVEQQELIGGADMYIATCRECYSKQQLPSIEEMRTQRMAIKEVEKRYLGLSDKRATASPQTPEKPAGGWCTKAGVATLPTMVKEGAASSGASAGMKSGRGLCEMQAFTTETPKYQRVEPACTASAASSE | soluble
6 | MAFWQSKTLTEMTSQEWESLCDGCGKCCLNKLIDDETEELYYTNAACLLLDHQTTSCQHYSDRFRYVPQCTVITAQNVHELTWLPDSCAYRRLAAGRALPSWHPLLTGSKDAMHLAGMSIQGKVVDERRVKDIEDHIVLWPLKDLD | soluble
7 | MVEQIKDKLGRPIRDLRLSVTDRCNFRCDYCMPKEVFGDDFVFLPKNELLTFDEMARIAKVYAELGVKKIRITGGEPLMRRDLDVLIAKLNQIDGIEDIGLTTNGLLLKKHGQKLYDAGLRRINVSLDAIDDTLFQSINNRNIKATTILEQIDYATSIGLNVKVNVVIQKGINDDQIIPMLEYFKDKHIEIRFIEFMDVGNDNGWDFSKVVTKDEMLTMIEQHFEIDPVEPKYFGEVAKYYRHKDNGVQFGLITSVSQSFCSTCTRARLSSDGKFYGCLFATVDGFNVKAFIRSGVTDEELKEQFKALWQIRDDRYSDERTAQTVANRQRKKINMNYIGG | soluble
8 | MRGCNKETGEFLGPSRSQQRRTALEVLVLSEKLAALTPAQLAKLPIPERLLPHITETKRITSHIARKRQLAFLAKQMRREDDTTLEAIREKLNASGIQAQREVATLHRTEQWRKRLLEEGDSALTELLNQYPQADCGKLRQLLRNSKTEQARNKAPQAFRELYQVLHGLIITQ | not soluble
9 | MTDKLPFALYSRCVKAGKRFYYIDAKRDSKGNDYLVITESNSAEEGSAMTRHKVFLYREDFAKFTEAFLDVLKSFEKRSGVSGCEQAIGLSELEQSLSDMTTGVEGLAESSDSILEEDEPLKIDFDF | not soluble
10 | MDYIKGIAFDLYGTLFDVHSVVGRCDEAFPGRGREISALWRQKQLEYTWLRSLMNRYVNFQQATEDALRFTCRHLGLDLDARTRSTLCDAYLRLAPFSEVPDSLRELKRRGLKLAILSNGSPQSIDAVVSHAGLRDGFDHLLSVDPVQVYKPDNRVYELAEQALGLDRSAILFVASNAWDATGARYFGFPTCWINRTGNVFEEMGQTPDWEVTSLRAVVELFETAAGKAEKG | soluble
11 | CPDRWMKYGNHCYYFSVEEKDWNSSLEFCLARDSHLLVITDNQEMSLLQVFLSEAFSWIGLRNNSGWRWEDGSPLNFSRISSNSFVQTCGAINKNGLQASSCEVPLHWVCKK | soluble
12 | MAELQFPGVYVEDVGHLAFGTLKLTEKSLNFKGDKGGKSVNVTGSDIDKLKWQKLGNKPGLRVGLNDGGAHRFGGFKDTDLEKIQSFTSSNWSQSIDQSNLFIKGWNYGQAEVKGKTVEFSWEDKPIFEIPCTNVSNVIANKNEAVLEFHQNDDSKVQLMEMRFHMPIDLENEEDADKVEEFKKAVLAYAGLEAETEQPICLLTDILCTTPRGRYDIKVYPTSIALHGKTYDYKIPIKSINRLFLVPHKDGRHVYFVLSLNPPIRQGQTRYSYLIFEFGKDEEQDLELALTDEQLESSNGNLRRDMTGPIYETISILFKSICNLKITVPGRFLGSSGTPAIQCTHRQNPGLLYPMEKGFLFIHKPAMYIRFEEISSCHFARSDSGTVTRTFDFEIDLKYGGPLTFNAMEKEENNKLFDYLNKKNIKIRNSQRVENTVADSSDDEIDPYKAAVTAEGRQRDDSDDDSTDEDYDLDKDIKKKKEDKESSEGTGSEPDDEYDSGSEQDSSGTGESEPDSEQDVPSKRRKGEPKEKREKKEKREKKEGKKGKKDKDPNAPKRATSAYMQWFLASRNELKEDGDSVADVAKKGGAKWKTMSSDDKKKWEEKAEEDKSRYEKEMKEYRKNGPPSSSSKPSSSKTSKKSSGPSSSKAISKEYISDSDDSDDEEPKKKEKKAAPKEESEESNNGSDGSDESDDSD | soluble
13 | MLRALRGAADLLSTALYKNEMMMSRRYLSTPAPEPAKPSSEETTESTEPATSVEDAGEPMKEKRITQPYSSEALTKLKLDQYPLYVEREWWKTGKRMTFWASWRQLRDVKRREQIQEVGADRMRLKAIKFNTILPQAIRDEAAEKMQKARKYDHPRLILNMCQFTGRQRGKIKPYRLSRHLFRRFADRSALSGVQRAMW | not soluble
14 | MTLLRVGGVPEPFNEIFMQAQEGALPSTKLQVEFLGVAGGSGAALEMLAKCELDVAVTLTESAVARTKAAASGLAVHSVYVASPLAWGVAVSSKKTDWTDLNSLDAAVLRGESIRAGFSRRGSGSHLLLSVFASDRGWISTGIQNDILKSFECGSFDGLIQAAVAGDIDMFLWETCFTKECAATRQGLIRLVGEYAPSWPAFVLVCRDDAHVRAAVSELKREIEPLQRKFCTGEGLDILQNKYGFSLESAKLWLSRLQFAEPDEALSAEQWRSVERALELTAGSRSSSR | soluble
15 | MNIEQQLYDVVKQLIEQRYPNDWGGAAAIRVEDGTIYTSVAPDVINASTELCMETGAILEAHKFQKKVTHSICLARENEHSELKVLSPCGVCQERLFYWGPEVQCAITNAKQDIIFKPLKELQPYHWTEAYHDEMVKEWSTR | soluble
16 | MNVQETYLKELKARGYQPDEAQQRAVDRLQLCYDEWVAYKARRSSALRKLLVRPELPRGVYMWGGVGRGKSFLMDAFYSCVPVVRKTRLHFHEFMREVHRQLEELRGRADPLDELARRIAKRYRLICFDEFHVSDVADAMILHRLLDQLFANGVQFVMTSNYRPDLLYPDGLHRDRVLPAIALLQEKLDVLNVDAGIDYRKRAMEQVQAYHTPLGAQANSALRDAFAAVAEAPDESPILHIEHREIRAQRKAGGVVWFDFATLCGGPRSQNDYLEIAARFHTVILADVPKMTPRMASEARRFTWLIDVLYDHKVKLLMSAEVPADALYTEGQMANEFHRTVSRIIEMQSREYLEAPRRAVDTTLTLEHHHHHH | not soluble
17 | GEIYTETLQQTYAWTAGTNIPIKIPRNNFIRKIRVQLIGSISNSGTAAVTLPSAPFPYNLVQTFNLSYEGSKTLYSVSGTGLGILMYYTTKGQNPAYPAPGTSVPASGSVNLNVMWEFDLARFPATMVQNIILSILTGQAPSGVSINASFYITITYERVTAQEILSEGGLGADGEMPLATVLPKVIEIPTFNVPASSAPIHVAYLQPGQIYKRQLVYVINSTSGINNTDPTEYELKIVRGVPTDKIKVSWAALQAENQAEYQVAPYSGASAIIDFRKYFNGDLDLTHAPSDSIEYDLALQNQDNVYSLYVSYVLPYYDQLAALPAQVAAIVQQYVARQKRRIKRHHHHHH | soluble
18 | MKDFPIRFVLTDEAITPSAGLALVGYLLHQTKLNKRVNALRPPTVRRDVHISHSDVIRSMIGLLATGKTDFDHIEAYRQDDIFSTSMGIQHVPSSPTLRQRLDQLACLPMTETILWEESMRLLIQRHATLSPCWAKGKTTWLPLDIDGSPFDNSDTKKEGVSRTYKGFDGFTPLFAYAGKEGYIVHAELRPGKQHVQDNMPSFLTTAIRRARQLTSSRLLVRMDAGNDAEANVHVCLKEDVDFVIKRNLRRESKALWFQIASQKGKRVDDGQTEGVQTYELCLPQTAAIDGNTYTYVQVTQVTERTMERNGQVMLVPNYEVESYWVRLKGYEHVRMSDVLALYHDHATCEQFHSELKSDLDLERLPSGKMKTNALVLVMGAFVYNLLRLIGQDLLSDPRHPLHHKVKRRRIKTIIQTVITMAGRLVRRSRQLWMKLTRRSGYSILLLNVYQKWKEAR | not soluble
19 | MSLSPLEMALLVHRGEFHLRELEPELPLEKFLKNADPKKTRKFLEKCGKEELERQKELIRKHNVKLVSFWEDDYPQHLREIRYPPAVLFVRGDAELLKEKCVGVVGTRRPTSYGVNVTKRFVKLLSEYFVIVSGMAFGIDSVAHKEALSSGGKTVAVLGTGVDVVYPRSNERLFHEIVKNGCVVSEYPMGTRARKHHFPARNRIIAGLSDAIIVTEAPIKSGALITVKFALESGRDVFAVPGDIDRKTSEGTNYLIKSGAYPLTDEEDLETHFGIRRIASPSLDDDKKKIYDLLRSSPKTVDELVEELGWSVSEVLRVISEMELMGMIWFDGGAYRLLGEGHHHHHH | soluble
20 | GPVPTPPDNIQVQENFNISRIYGKWYNLAIGSTCPWLKKIMDRMTVSTLVLGEGATEAEISMTSTRWRKGVCEETSGAYEKTDTDGKFLYHKSKWNITMESYVVHTNYDEYAIFLTKKFSRHHGPTITAKLYGRAPQLRETLLQDFRVVAQGVGIPEDSIFTMADRGECVPGEQEPEPILIPRV | soluble
21 | MIPGGNTLKETAVVPAATGYDRIAFIYDIIAGIASFDQINKSQLAFLSSIPTQSTCLILGGGTGYFLQKLLEQNATIQVTYVDASQKMIEFAQKRIAEKKPYDAHRVTFVCKQVNVFEFDTYDSIVCNYFLDLFEEADVTMLIKKFKKHLKKDGILYITDFTMPIRTGIIEWSAKAGLKVLYWFFKRTTSLSNNQLPDIESVVLKQDFIKLHSADFFKGILRCSLYR | not soluble
